{
  "source": "patent US20220096653A1",
  "about": "“CONJUGATE COMPRISING LIGAND AND CEACAM5 ANTIBODY FAB FRAGMENT” (ASTELLAS PHARMA INC., priority 2019, published 2022)",
  "key": {"[1]": {"target": "human cancer-specific MUC1 peptide", "sequence (as listed by the source)": "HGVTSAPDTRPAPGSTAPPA", "assay": "ELISA binding activity of anti-human MUC1 antibody Fab^5 fragment conjugates (Example 6-1)", "conditions": "each conjugate run in duplicate; Table 52; read-out: EC50", "procedure": "(§1) Each anti-human MUC1 antibody Fab^5 fragment conjugate prepared by the method of Example 5 was subjected to ELISA to evaluate the binding activity thereof to human cancer-specific MUC1. In the present test, 20×PBS/Tween 20 Buffer (Thermo Fisher Scientific Inc., 28352) diluted 20-fold with distilled water was used as a wash liquid. In addition, for bovine serum albumin (BSA) used in the present test, 30% Bovine Serum Albumin solution (Sigma-Aldrich, Inc., A9576-50ML) was added in an appropriate proportion for use. A human cancer-specific MUC1 peptide (PTL 1) at 0.5 μmol/L was added to a Nunc MaxiSorp White 384 plate (Nunc, 460372) at 30 μL per well, and the plate was incubated overnight at 4° C. for immobilization. The MUC1 peptide was removed by reverse centrifugation, and then blocking was carried out by adding a PBS/Tween 20 buffer containing 5.0% BSA. Thereafter, the blocking solution was removed by reverse centrifugation, a solution of each anti-human MUC1 antibody Fab^5 fragment conjugate (Ex-No. 104, 108, or 112) described above at about 10000 ng/mL was diluted in 14 steps by 3-fold dilution using a PBS/Tween 20 buffer containing 1.0% BSA, and 30 μL was added per well and incubated at room temperature for 60 minutes. The plate was washed 3 times with a PBS/Tween 20 buffer, and Horseradish Peroxidase-labeled goat anti-human IgK antibody (Southern Biotechnology Associates, Inc.) diluted 10000-fold using a PBS/Tween 20 buffer containing 5.0% BSA was added at 30 μL per well and incubated at room temperature for 30 minutes. The plate was washed 3 times with a PBS/Tween 20 buffer, and ECL Prime Western Blotting DETECTION Reagent (GE Healthcare, RPN2232) as a substrate was added at 30 μL per well. The substrate was incubated at room temperature for 15 minutes, and then a signal value thereof was measured using an Envision counter (PerkinElmer, Inc.).\n(§2) The test for each antibody was carried out in duplicate, and the EC50 value was calculated using a 4-parameter logistic curve model."}, "[2]": {"target": "human cancer-specific MUC1 peptide (Homo sapiens, UniProt P15941)", "assay": "ELISA binding activity of anti-human MUC1 antibody Fab^5 fragment conjugates (Example 6-2)", "conditions": "each conjugate run in duplicate; Table 54; read-out: EC50", "procedure": "as §1, with “101-113)” for “104, 108, or 112)”\nas §2"}, "[3]": {"parameters": "species or system mice (BALB/c or BALB/c nu/nu)", "conditions": "mouse, in vivo", "protocol": "A Gd-labeled conjugate of the conjugate containing a peptide linker produced in one of the above Examples was administered from the tail vein of mice (BALB/c or BALB/c nu/nu) so that the protein mass was 0.02 mg (100 μL) per animal. After about 24 hours, the mice were sacrificed and the kidneys were removed, and the amount of Gd in the kidneys was measured using ICP-MS. The present test was carried out in 3 cases in each group, the mean value of the 3 cases was calculated, and the amount of Gd contained per kidney after administration was shown as a percentage (% of dose/tissue) of the total amount of Gd administered.\nBased on the amount of Gd contained in the kidneys of the control conjugate, the proportion of decrease in the amount of Gd contained in the kidneys of each of the conjugates having a peptide linker was determined."}, "[4]": {"parameters": "species or system mice (BALB/c nu/nu)", "conditions": "mouse, in vivo", "protocol": "(§3) A Gd-labeled conjugate of the conjugate containing a peptide linker produced in one of the above Examples was administered from the tail vein of the tumor-bearing mice so that the protein mass was 0.02 mg (100 μL) per animal. As the tumor-bearing mice used in the present Example, mice (BALB/c nu/nu) that were in a tumor-bearing state brought about by transplanting human breast cancer cell line MDA-MB-468 (ATCC(registered trademark); HTB-132) at 5.0×10^6 cells/mouse subcutaneously on the back before administration of the sample were used. 24 hours after administration of the sample, the mice were sacrificed, the kidneys and the tumor were removed, and the amounts of Gd in the kidneys and in the tumor were measured using ICP-MS. The present test was carried out in 3 cases in each group, and the mean value of the 3 cases was calculated. The amount of Gd contained per kidney after administration was shown as a percentage of the amount of Gd administered (% of dose/tissue), and the amount of Gd contained per g of tumor tissue was shown as a percentage of the total amount of Gd administered (% of dose/g)."}, "[5]": {"test_system": "human breast cancer cell line MDA-MB-468", "assay": "Amount of tumor accumulation of Gd-labeled Fab^5 conjugates, MDA-MB-468 tumor-bearing mice (Example 8)", "conditions": "control conjugate Ex-No. 108, mean for 2 runs, 24 hours", "protocol": "as §3"}},
  "data": [
    {"molecule": "Ex-No 108 (conjugate, non-natural residues) heavy: QVQLVQSGAEVKKPGASVKVSCKASGYTFTNYGLSWVRQAPGQGLEWMGENHPGSGIIYHNEKFRGRVTLTADRSTSTAYMELSSLRSEDTAVYYCARSSGTRGFDYWGQGTLVTVSSASTKGPSVFPLAPSSKSTSGGTAALGCLVKDYFPEPVTVSWNSGALTSGVHTFPAVLQSSGLYSLSSVVTVPSSSLGTQTYICNVNHKPSNTKVDKKVEPKSCD light: DVVMTQTPLSLSVTPGQPASISCRSSQSIVHSNGNTYLEWYLQKPGQSPQLLIYRVSNRFSGVPDRFSGSGSGTDFTLKISRVEAEDVGVYYCFQGSHGPWTFGQGTKLEIKRTVAAPSVFIFPPSDEQLKSGTASVVCLLNNFYPREAKVQWKVDNALQSGNSQESVTEQDSKDSTYSLSSTLTLSKADYEKHKVYACEVTHQGLSSPVTKSFNRGEC", "values": [
      {"measurement": "EC50", "setting": "[1]", "result": 0.07, "unit": "nM"},
      {"measurement": "EC50", "setting": "[2]", "result": 0.07, "unit": "nM"},
      {"measurement": "Renal residual amount (normal mice) Mean", "setting": "[3]", "result": "33.00 % of dose/tissue"},
      {"measurement": "Renal residual amount Mean", "setting": "[4]", "result": "34.67 % of dose/tissue"},
      {"measurement": "Amount of tumor accumulation Mean", "setting": "[5]", "result": "0.92 % of dose/g"}
    ]}
  ]
}
